Source: US20250361284A1, “TRANSPOSASE FUSION PROTEINS FOR USE IN CELL AND GENE THERAPY” (JULIUS-MAXIMILIANS-UNIVERSITÄT WÜRZBURG, priority 2022, published 2025)

What was measured:
Type in all cases: cell-based, human
HeLa cells = experiment: Transposition assay (G-418-resistant colonies) in HeLa cells; conditions: presence of TMP
Description: (2D) Transposition assay for evaluating the activity of dd-SB100X fusion-transposase. HeLa cells were transfected with neomycin-marked transposon plasmid and construct expressing wild type SB transposase (SB100X) or fusion-transposase (dd-SB100X), and selected for transposition events by antibiotic selection with G-418. Data representing the number of G-418-resistant colonies are shown on the right.
An transposon donor vector with neomycin resistance gene was generated de novo in house using Gibson assembly. In order to test the activity (in terms of integration capability) of the fusion-transposase (dd-SB100X) transposition assay was performed in HeLa cells as per the published protocol (Ivics et al., 1997). Briefly, ˜150,000 HeLa cells were seeded into each well of a 6-well plate a day before transfection. […] After 10 days of selection, cells were washed with PBS, fixed with tissue culture fixing solution, stained with methylene blue and counted.
We next examined the activity of the fusion-transposase (dd-SB100X) by standard transposition assay wherein we transfected HeLa cells with a SB transposon donor plasmid encoding a neomycin resistance gene, together with plasmid encoding SB100X as a positive control, or the fusion-transposase protein. […] After 10 days, colonies were fixed, stained and counted to determine the integration events achieved under each of the experimental conditions.

CD4+ T cells = experiment: CAR gene transfer (EGFRt flow cytometry) in CD4+ T cells, dd-SB100X vs wild type SB100X plasmid; conditions: day 7
Procedure: (4A) CAR gene transfer in CD4+ T cells using dd-SB100X fusion-transposase vs. wild type SB100X transposase. CD3/CD28 activated CD4+ T cells were nucleofected with CD19-CAR_EGFRt SB transposon minicircle DNA and plasmid encoding either the fusion-transposase (pdd-SB100X/dd-SB100X) or the wild type SB transposase (pSB100X/SB100X). At 7 days post-nucleofection, flow cytometric analysis was performed to determine the percentage of T cells that express the EGFRt reporter. Top panel: Dot plots show EGFRt expression on day 7 post-nucleofection.
(§1) Anonymous healthy donor blood samples were received upon written consent to participate in research protocols approved by the Institutional Review Board of the Universitätsklinikum Würzburg (UKW). Blood samples were processed for T cells isolation as published earlier (Querques et al., 2019). Briefly, Peripheral blood mononuclear cells (PBMCs) were isolated by density centrifugation with Biocoll separating solution (Biochrom). Both CD4+ and CD8+ T cells were sorted by negative isolation approach using microbeads and magnetic associated cell sorting (MACS, Miltenyi) methods as described by the manufacturer. The isolated CD4+ and CD8+ T cells were cultured in T cell medium (RPMI-1640 with 10% (vol/vol) human serum, 2 mM L-glutamine, 100 U ml-1 penicillin-streptomycin) containing IL-2 (50 units per mL) and activated by anti-CD3/CD28 bead stimulation (Thermo Fisher). Two days post-activation, approximately 2 million T cells were nucleofected with vectors (1 μg of CD19 CAR (EGFRt)-encoding transposon as plasmid or minicircle DNA; 1 μg of mRNA encoding SB transposase) or 10 μg of hsSB protein (Querques et al., 2019) using a 4D Nucleofector (Lonza) as per the manufacturer's instructions. […]
We next investigated if the dd-SB100X fusion-transposase retained transposition activity in primary human T cells. […] We observed differences in CD19-CAR_EGFRt expression, as evidenced by mean fluorescence intensity (MFI) of EGFRt by flow cytometry.

CD19 CAR T cells = experiment: Transposon (CAR) copy number analysis by ddPCR in CAR T cells; conditions: plasmid-encoded transposase, EGFRt-enriched CAR T cells
Procedure: (4C) CAR Copy number analysis of CD8+ CD19 CAR T cells engineered with dd-SB100X fusion transposase. The number of integrations per genome was analyzed by ddPCR. Data shown are mean values of three biological replicates measured in technical triplicates and shown ±S.E.M. The data was analyzed using unpaired, two-tailed Student's T-test and differences were statistically significant (*, p=0.0274).
(6D) Transposon copy number analysis in EGFRt+ CD8+ T cells that were nucleofected with CD19-CAR_EGFRt SB transposon minicircle DNA and mRNA encoding either the wild type SB transposase (SB100X) or the fusion-transposase (dd-SB100X) assessed by digital droplet PCR.
Genomic DNA (gDNA) of CAR-positive T cells was isolated using dPureLink gDNA Mini Kit (Invitrogen, California, USA). Droplet digital PCR (ddPCR) was set up and analyzed in technical triplicates. Each ddPCR reaction contained ready-to-use ddPCR Supermix for Probes No dUTP (Bio-Rad, California, USA), 20 ng of the respective fragmented gDNA, 0.2 μL of CviQl (10 000 U/mL) (NEB, Frankfurt am Main, Germany), 0.1 μL of Dpnl (20,000 U/mL) (NEB, Frankfurt am Main, Germany), 200 nM of each respective ddPCR FAM/HEX probe, and 600 nM of each respective forward and reverse primer in a final volume of 25 μL. CviQl was used to fragment the gDNA to ensure single-copies per droplet. DPNI was used to specifically digest non-integrated vectors. […]

K562/CD19 target cells = experiment: Antigen specific proliferation (CFSE dye dilution) of CD19 CAR T cells; conditions: 72 hours, stimulation with K562/CD19 target cells
Procedure: (4E) Antigen specific proliferation by CD4+ CD19 CAR T cells engineered with dd-SB100X fusion transposase. Proliferation of CD4+ CAR T cells was examined by CFSE dye dilution after 72 hours of co-culture with K562/CD19 or K562 target cells. For analysis, triplicate wells were pooled and the proliferation of viable 7-AAD-negative T cells was analyzed. The division index (average number of cell divisions) was calculated using FlowJo software. Data shown are mean values ±s.d. of one representative experiment.
as §1, with “Fisher).” for “Fisher). Two days post-activation, approximately 2 million T cells were nucleofected with vectors (1 μg of CD19 CAR (EGFRt)-encoding transposon as plasmid or minicircle DNA; 1 μg of mRNA encoding SB transposase) or 10 μg of hsSB protein (Querques et al., 2019) using a 4D Nucleofector (Lonza) as per the manufacturer's instructions.”

CD8+ T cells = experiment: Gene transfer in CD8+ T cells with TMP priming before nucleofection; conditions: day 7
Procedure: CD8+ T cells were isolated from healthy donor PBMC and activated with CD3/CD28 bead stimulation. […] Cells were nucleofected with CD19-CAR_EGFRt SB transposon minicircle DNA and plasmid encoding either the wild type SB transposase (SB100X) or the fusion-transposase (dd-SB100X). […] At 7 days post-nucleofection, flow cytometric analysis was performed to determine the percentage of T cells that expresses the EGFRt reporter. Top panel: Dot plots show EGFRt expression on day 7 post-nucleofection.
as §1, with “instructions. CD19 CAR-modified (i.e., EGFRt+) T cells were enriched using biotin-conjugated anti-EGFR monoclonal antibody and anti-biotin beads (Miltenyi) as per the manufacturer's instructions.” for “instructions.”

B1: dd-SB100X: ecDHFR destabilizing domain fused via linker to N-terminus of SB100X transposase; SEQ ID NO: 2 (protein)
chain: MISLIAALAVDYVIGMENAMPWNLPADLAWFKRNTLNKPVIMGRHTWESIGRPLPGRKNIILSSQPSTDDRVTWVKSVDEAIAACGDVPEIMVIGGGRVIEQFLPKAQKLYLTHIDAEVEGDTHFPDYEPDDWESVFSEFHDADAQNSHSYCFEILERKLGGGAPAVGGGPKMGKSKEISQDLRKRIVDLHKSGSSLGAISKRLAVPRSSVQTIVRKYKHHGTTQPSYRSGRRRVLSPRDERTLVRKVQINPRTTAKDLVKMLEETGTKVSISTVKRVLYRHNLKGHSARKKPLLQNRHKKARLRFATAHGDKDRTFWRNVLWSDETKIELFGHNDHRYVWRKKGEACKPKNTIPTVKHGGGSIMLWGCFAAGGTGALHKIDGIMDAVQYVDILKQHLKTSVRKLKLGRKWVFQHDNDPKHTSKVVAKWLKDNKVKVLEWPSQSPDLNPIENLWAELKKRVRARRPTNLTQLHQLCQEEWAKIHPNYCGKLVEGYPKRLTQVKQFKGNATKY
modifications: misc_feature 1..1539 ecDHFR-SB100X
transposition activity (HeLa cells): active and mediated transposition activity
transposition activity compared to wild type SB100X (HeLa cells): reduced transposition activity
gene transfer rate (EGFRt+ T cells) (CD4+ T cells; cultured in absence of TMP after nucleofection): ~6.6%
gene transfer rate (EGFRt+ T cells) (CD4+ T cells; dd-SB100X cultured in presence of TMP after nucleofection, SB100X wild type control): ~18%
MFI of EGFRt compared to wild type SB100X (CD4+ T cells; presence of TMP): lower MFI
transposon copies per genome (average) (CD19 CAR T cells): 2.99 copies per genome
proliferation (cell divisions) (K562/CD19 target cells): > 3 cell divisions
MFI of EGFRt expression compared to wild type SB100X (CD8+ T cells): lower MFI
gene transfer (EGFRt+ T cells) (CD8+ T cells; not primed with TMP): ~26.1%
gene transfer (EGFRt+ T cells) (CD8+ T cells; primed with TMP 1000 nM for 24 hours before nucleofection): ~29.7%
